The record followed here is PMC3265607 (Journal of Molecular Biology, 2011).

The target in experiment [1] is ceNXT1, His6, pET28b construct for pull-down assays (Caenorhabditis elegans) (UniProt Q9U757). The experiment in a line: SEC.
Experiment [2] addresses T1, ceNXT1 (residues 2-137), His6, pETDuet-1 construct for structural studies (Caenorhabditis elegans, UniProt Q9U757 2-137, SeMet-labeled (selenomethionine)).
T1 sequence (looked up): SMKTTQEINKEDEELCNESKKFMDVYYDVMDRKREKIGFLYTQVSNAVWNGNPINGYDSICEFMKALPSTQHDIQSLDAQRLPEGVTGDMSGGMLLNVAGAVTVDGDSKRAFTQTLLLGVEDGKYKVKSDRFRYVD
Kind of experiment: SEC.

Broadly, the stoichiometry N is a count of units in the complex or per binding partner. In turn, “ceNXF1(NTF2) (from UniProt Q9XVS7 352-539) (domain or fragment)” had a stoichiometry N in experiment [1] of 1.

B1: ceNXF2(NTF2) (domain or fragment, Caenorhabditis elegans, UniProt Q9XVS8 202-405, looked up)
chain: FRNGYYGSDEVRTLVEEFIITYYKIYDGADGQQTRKQLLDAYDTNNSTFTHTVVCLWDPIKFVMYPDSESYRMYLRTSHNVLNQEYFAANRASRISHGAMDIVVALSRLPATIHLMDTFVVDVFLVSATLLGFTLHGTFRDGPSAIKPENTEEHDNYFTRTFMVAPRGEGKVAIVSDQLFISSMSKRRGDQYRMLVETATDIDQ
For B1, in experiment [2], the “stoichiometry N” value was 1.
